Test [1] concerns the target T1, wild-type tau (441 amino acids; tau441; NP_005901.2) (human, UniProt P10636 1-758).
T1 construct: Unphosphorylated recombinant tau441 used in the wild-type tau ELISA; also called wt tau441; wtTau
The test is described as follows: wild-type tau ELISA, ExpiCHO supernatant.

The target of test [2] is T1, wild-type tau (441 amino acids; tau441; …). The test is described as follows: wtTau ELISA.
Test [3] deals with T2, extracellular tau in the form of paired helical filaments (ePHF tau) (UniProt P10636-8 1-441, limits assumed).
T2 construct: Aggregated, hyperphosphorylated tau preparation; not a single defined polypeptide
The test is described as follows: ePHF tau ELISA, ePHF coated; antibody at 500.0 ng/ml; anti-mouse-HRP.

In test [4] the target is T2, extracellular tau in the form of paired …. The test is described as follows: ePHF tau ELISA, ePHF coated; antibody at 6.2 ng/ml; anti-mouse-HRP. A general note: An ELISA detects its analyte on a solid surface through an enzyme-linked reagent.
Test [5] shares this target. Nature of the test: ePHF tau ELISA, ePHF coated; antibody at 18.5 ng/ml; anti-mouse-HRP.
Test [6] shares this target. The test is described as follows: ePHF tau ELISA, ePHF coated; antibody at 166.7 ng/ml; anti-mouse-HRP.
Test [7] shares this target. Nature of the test: ePHF tau ELISA, ePHF coated; antibody at 0.7 ng/ml; anti-mouse-HRP.
For test [8] the target is unchanged. Nature of the test: ePHF tau ELISA, ePHF coated; antibody at 55.6 ng/ml; anti-mouse-HRP.
For test [9] the target is unchanged. Nature of the test: ePHF tau ELISA, ePHF coated; antibody at 1000.0 ng/ml; anti-mouse-HRP.
For test [10] the target is unchanged. Nature of the test: ePHF tau ELISA, ePHF coated; antibody at 2.1 ng/ml; anti-mouse-HRP.

T1 sequence (P10636 other isoform, or with tags, fused parts or gaps limits assumed): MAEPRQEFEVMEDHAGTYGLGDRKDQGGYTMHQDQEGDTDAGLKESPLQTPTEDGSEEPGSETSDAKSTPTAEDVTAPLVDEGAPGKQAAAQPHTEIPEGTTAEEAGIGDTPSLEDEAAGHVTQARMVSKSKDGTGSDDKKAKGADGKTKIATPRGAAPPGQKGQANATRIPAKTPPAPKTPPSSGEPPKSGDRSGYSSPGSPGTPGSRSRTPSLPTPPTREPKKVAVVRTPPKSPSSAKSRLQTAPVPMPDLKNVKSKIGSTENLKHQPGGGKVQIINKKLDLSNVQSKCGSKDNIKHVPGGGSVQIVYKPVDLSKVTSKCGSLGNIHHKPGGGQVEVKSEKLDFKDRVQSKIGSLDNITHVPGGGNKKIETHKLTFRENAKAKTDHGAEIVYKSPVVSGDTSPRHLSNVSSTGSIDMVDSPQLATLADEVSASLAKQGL
T2 sequence (P10636 other isoform, or with tags, fused parts or gaps limits assumed): as above

B1: IPN002 antibody expressed from CAG-IPN002-HF.T2AL (TAU_ITR1) (antibody, V domains shown)
VH: EVHLVESGGALVKPGGSLKLSCAASGFSFSKYGMSWVRQTPDKRLEWVATISSSGSRTYYPDSVKGQFTISRDNAKNTLYLQMSSLKSEDTAMYYCSISWDGAMDYWGQGTSVTVSS
VL: DVLMTQTPLSLPVSLGDQASISCKSSQSIVHSNGNTYLEWYLQKPGQSPKLLVYKVSNRFSGVPDRFSGSGSGTDFTLKISRVEAEDLGTYYCFQGSLVPWAFGGGTKLEIK
For the molecule B1, the binding result in [1] is listed as “binds”.

B2: IPN002 Fab expressed from TAU_ITR127 (CAG, HF.T2AL) (Fab, V domains shown)
VH: B1 VH
VL: B1 VL
Consider B2, for which, in test [2], the binding result was “binds”.

B3: IPN002 Fab_ext expressed from TAU_ITR130 (CAG, LT2AH) (Fab, V domains shown)
VH: B1 VH
VL: B1 VL
notes: Extended Fab
As to B3, the binding result in test [2] is on record as “binds”.

B4: IPN002 antibody expressed from CB6-IPN002-LT2AH (TAU_ITR87) (antibody, V domains shown)
VH: B1 VH
VL: B1 VL
notes: Full antibody
B4: the binding result in [1] is reported as “binds”.

B5: IPN002 antibody expressed from CAG-IPN002-HF.F2AL (TAU_ITR2) (antibody, V domains shown)
VH: B1 VH
VL: B1 VL
Consider B5, for which the binding result in test [1] is “binds”.

B6: IPN002 Fab_ext expressed from TAU_ITR128 (CAG, HF.T2AL) (Fab, V domains shown)
VH: B1 VH
VL: B1 VL
As to B6, the binding result in [2] is on record as “binds”.

B7: IPN002 Fab_ext expressed from TAU_ITR124 (CBA, hGbin, HF.T2AL) (Fab, V domains shown)
VH: B1 VH
VL: B1 VL
Regarding B7, the binding result in test [2] is “binds”.

B8: IPN002 antibody expressed from CAG-IPN002-LF2AH (TAU_ITR9) (antibody, V domains shown)
VH: B1 VH
VL: B1 VL
Consider B8, for which, in [1], the binding result is given as “binds”.

B9: IPN002 antibody expressed from CB6-IPN002-LF2AH (TAU_ITR11) (antibody, V domains shown)
VH: B1 VH
VL: B1 VL
For the molecule B9, in test [1], the binding result is “binds”.

B10: IPN002 antibody expressed from CB6-IPN002-HF.F2AL (TAU_ITR3) (antibody, V domains shown)
VH: B1 VH
VL: B1 VL
As for B10, the binding result in test [1] is “binds”.

B11: IPN002 Fab expressed from TAU_ITR123 (CBA, hGbin, HF.T2AL) (Fab, V domains shown)
VH: B1 VH
VL: B1 VL
With B11, in test [2], the binding result is “binds”.

B12: IPN002 antibody expressed from CAG-IPN002-LT2AH (TAU_ITR10) (antibody, V domains shown)
VH: B1 VH
VL: B1 VL
notes: Full antibody
In the case of B12, the binding result in test [1] is “binds”.

B13: IPN002 antibody expressed from CB6-IPN002-HF.T2AL (TAU_ITR4) (antibody, V domains shown)
VH: B1 VH
VL: B1 VL
For the molecule B13, the binding result in test [1] is “binds”.

B14: IPN002 Fab_ext expressed from TAU_ITR129 (CBA, hGbin, LT2AH) (Fab, V domains shown)
VH: B1 VH
VL: B1 VL
notes: Extended Fab
On to B14, for which the binding result in test [2] is given as “binds”.

B15: anti-tau antibody MC1 expressed from viral genome construct MC1HIRESL (TAU_ITR75; SEQ ID NO: 2064) (antibody, mouse IgG1, kappa, V domains shown)
VH: QVQLQQSGAELMKPGASVKISCKATGYTFSNYWIEWVKQRPGHGLEWIGEILPGSDSIKYNENFKGKATFTADTSSNTAYMQLSSLTSEDSAVYYCARRGNYPDYWGQGTTLTVSS
VL: DVVMTQTPLSLPVSLGDQASISCRSSQSLVHSNGNTYLHWYLQKPGQSPKLLIYKVSNRFSGVPDRFSGSGSGTDFTLKISRVEAEDLGVYFCSQSTHVPLTFGAGTKLELKR
In the case of B15, the OD450 amounted to 0.7 OD450 in [3]; 0.1 OD450 in [4]; 0.1 OD450 in [5]; 0.3 OD450 in test [6]; 0.1 OD450 in [7]; 0.2 OD450 in test [8]. Further, the OD450 is 1 OD450 in test [9] and 0.1 OD450 in [10].

B16: anti-tau antibody MC1 expressed from viral genome construct MC1HF.P2AL (TAU_ITR73; SEQ ID NO: 2062) (antibody, V domains shown)
VH: B15 VH
VL: B15 VL
B16: the OD450 came to 0.9 OD450 in test [3]; 0.1 OD450 in [4]; 0.2 OD450 in [5]; 0.6 OD450 in test [6]; 0.1 OD450 in [7]; 0.4 OD450 in [8]. In addition, the OD450 in [9] was found to be 0.9 OD450; in [10], 0.1 OD450.

B17: anti-tau antibody MC1 expressed from viral genome construct MC1HF.F2AL (TAU_ITR72; SEQ ID NO: 2061) (antibody, V domains shown)
VH: B15 VH
VL: B15 VL
For the molecule B17, the OD450 in test [3] was 1 OD450; in test [4], 0.2 OD450; in [5], 0.3 OD450; in test [6] it was 0.7 OD450; in test [7], 0.1 OD450; in test [8], 0.5 OD450. Further, the OD450 in test [9] came out at 1.1 OD450; in [10], 0.1 OD450.

B18: anti-tau antibody MC1 expressed from viral genome construct MC1LF2AH (TAU_ITR79; SEQ ID NO: 2068) (antibody, V domains shown)
VH: B15 VH
VL: B15 VL
For B18, the OD450 came out at 1 OD450 in [3]; 0.1 OD450 in test [4]; 0.2 OD450 in test [5]; 0.7 OD450 in test [6]; 0.1 OD450 in test [7]; 0.4 OD450 in test [8]. The OD450 in test [9] amounted to 1.1 OD450; in test [10], 0.1 OD450.

B19: anti-tau antibody MC1 expressed from viral genome construct MC1LIRESH (TAU_ITR80; SEQ ID NO: 2069) (antibody, mouse IgG1, kappa, V domains shown)
VH: B15 VH
VL: B15 VL
On to B19, for which the OD450 is 0.9 OD450 in test [3]; 0.1 OD450 in [4]; 0.2 OD450 in test [5]; 0.6 OD450 in [6]; 0.1 OD450 in test [7]; 0.3 OD450 in test [8]. For the same molecule, the OD450 in test [9] came to 1 OD450; in [10], 0.1 OD450.

B20: anti-tau antibody MC1 expressed from viral genome construct MC1LF.F2AH (TAU_ITR78; SEQ ID NO: 2067) (antibody, V domains shown)
VH: B15 VH
VL: B15 VL
Consider B20, for which the OD450 in test [3] stood at 1 OD450; in test [4] it was 0.1 OD450; in test [5], 0.2 OD450; in test [6], 0.7 OD450; in test [7] it was 0.1 OD450; in test [8], 0.4 OD450. In addition, the OD450 in [9] stood at 1.1 OD450; in test [10] it was 0.1 OD450.

B21: anti-tau antibody MC1 expressed from viral genome construct MC1LF.P2AH (TAU_ITR83; SEQ ID NO: 2072) (antibody, V domains shown)
VH: B15 VH
VL: B15 VL
Regarding B21, the OD450 is 0.4 OD450 in test [3]; 0.1 OD450 in test [4]; 0.1 OD450 in [5]; 0.2 OD450 in test [6]; 0.1 OD450 in test [7]; 0.1 OD450 in test [8]. The OD450 in test [9] was found to be 0.6 OD450; in test [10], 0.1 OD450.

B22: anti-tau antibody MC1 expressed from viral genome construct MC1LP2AH (TAU_ITR82; SEQ ID NO: 2071) (antibody, V domains shown)
VH: B15 VH
VL: B15 VL
On to B22, for which the OD450 in test [3] was found to be 0.7 OD450; in test [4], 0.1 OD450; in test [5], 0.1 OD450; in test [6], 0.4 OD450; in [7] it was 0.1 OD450; in [8] it was 0.2 OD450. The OD450 in test [9] was 0.8 OD450; in test [10], 0.1 OD450.

The record behind these values is US20220339270A1 (published 2022).
